Assay results taken from the nanobody polyreactivity screen of Harvey et al. (2022).

Assay: yeast display, Sf9 membrane polyspecificity reagent, FACS + sequencing; frameworks hold sequencing errors
Procedure, shortened: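 Nanobodies from a synthetic yeast display library (Saccharomyces cerevisiae BJ5465), induced 36–48 hours with galactose, were stained 1 hour at 4 °C with 10% biotinylated, detergent-solubilized Sf9 membrane reagent, enriched on streptavidin microbeads, then FACS-sorted. Anti-HA (expression) and streptavidin (reagent binding) fluorescence set low and high (top ~1%) gates. Polyreactivity labels come from the gate of origin. Genes were colony-PCR amplified, MiSeq 2 × 250 sequenced and filtered by CDR length.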

Sequence | polyreactivity (PSR sort gate)
QVQLVESGGRLVQAGGSLRLSCAASGNIFTVNAMGWYRQAPGKERELVAAISVGDGTTYYADSVKGRFTISRDNAKNTVYLQMNSLKPEDTAVYYCAAEGYTDYEYWGQGTQVTVSS | high polyreactivity
QVQLVESGGRLVQAGGSLRLSCAASGNIFYYYAMGCYTQAHGKERELVAAISADCGRTYYADSVKGRFTISRDTAKNTVYLQMNSLQPEDTAVYYWNVLGRARTQTRYNYWGQGTQVTVSS | high polyreactivity
QVQLVESGGRLVQAGGSLRLSCAASGRIFLNYDMGWYRQAHGKERELVAAITWSTGSTYADSVKGRFTISRDNAKNNVYLKMNSLKPEVTAVYYCAAPWGQTDDRHKGGDYWGQGSQVTVSS | low polyreactivity
QVQLVESGGRLVQAGGSLRLSCAASGRIFSPYAMGRYRPAPGKERELVAAITQSGGITSYADSVKGRFTISRDNAKNTVYLQMISLKPEDTAVYYCNKDVWDGYDWPEFDYWGQGTQVTVSS | low polyreactivity
QVQLVESGGRLVQAGGSLRLSCAASGRILPGNAMGWYRQAPGKEREFVAAISYSGGRTYYADSVKGRFTISRDNAKNNVYLQMNSLKPEDTAVYSCAARSYGSAYYYWGQGTQVTVSS | high polyreactivity
QVQLVESGGRLVQAGGSLRLSCAASGRTFFGYAMGWYRQAPGKEWELVAAISSGGRTYYADSVKGRFTISRDNAQNTVYLQMNSLKPEDTAVYSCAAQYSARYYYWGQGTQVTVSS | high polyreactivity
QVQLVESGGRLVQAGGSLRLSCAASGRTFGPYAIGRYRQAPGKERELVAAITDTGSGTYYADSVKGRFTISRDNAKNTVYLQMNSLKPEDTAVYYCNAVRKYWGQGTQVTVSS | low polyreactivity
QVQLVESGGRLVQAGGSLRLSCAASGRTFGSYAMGWFRQAPGKERELVATIRNSGGISYYADSVKGRFTISRDTAKNTVYLQMNSLKPEDTAVYDCAKLGRYGYDYWGQGTQVTVSS | high polyreactivity
QVQLVESGGRLVQAGGSLRLSCAASGRTFIKYAMGWYRQAPGKERELVAAISRNGGSTNYADSVKGRFTISRDNAKNTVYLQMNSLKPEDTAVYYCAAVGTVSRTVGYNYWGQGTQVTVSS | high polyreactivity
QVQLVESGGRLVQAGGSLRLSCAASGRTFRPYAMGWYRQAPGKERELVAAISSRGSSTYYADSVKGRFTISRDNAKNTVYLQMNSLKPEDTAVYYCAARSYWGGLRYDYWGQGTQVTVSS | high polyreactivity
QVQLVESGGRLVQAGGSLRLSCAASGRTIVIYAMGWYRQAPGKEREFVAAISRSGGSTYYADSVKGRFTISRDNAKNTVYLQMNSLKPEDTAVYYCYTRTPYWFKSDYWGQGTQVTVSS | low polyreactivity
QVQLVESGGRLVQAGGSLRLSCAASGRTSGINAMGWYRQAPGKERELVAAISSGGRTYYADSVKGRFTISRDNAKNTVYLQMNSLKPEDTAVYYCAAVIHWSLYRRMEYWGQGTQVTVSS | high polyreactivity
QVQLVESGGRLVQAGGSLRLSCAASGSIFGWYAMGWYRQAPGKESEFVASISVTAGSTYYADSVKWRFTISRDNAKNTVYLQMNSLKPEDTAVFYCAADDYTADAVQRFYYWGQGTQVTVSS | low polyreactivity
QVQLVESGGRLVQAGGSLRLSCAASGSIFRFNTMGWYRQAPGKERELVAVIRYRSGSTYYADTVKGRFTISRDNAKYTVYLQMNSLKPEDTAVYYCAAKRRSTYDYWGQGTQVTVSS | high polyreactivity
QVQLVESGGRLVQAGGSLRLSCAASGSIFTFYALGWYRQAPGKESELVAAISYRGGSTYYADSVRGRFTISRDNAKNTVYLQMNRLKPEDTAVYFCAAGRFPVFFQGYRMEYWGQGTQVTVSS | low polyreactivity
QVQLVESGGRLVQAGGSLRLSCAASGSNLLWNTMGWYRQAPGKERELVAGITSGGNTYYADSVKGRFTISRDNAKNTVYLKMNSLKPEDTAVYYCSYYYWGQGTQVTVSS | low polyreactivity
QVQLVESGGRLVQAGGSLRLSCAASGSTFAANAMGRYRQDPGKDRELVAGITSSGGSTYYADSVKGRFTISRDNAKNTDYLQLTSLKPEDNAVYYCNKDNARYVRMYDSWGQGTQVTVSS | low polyreactivity
QVQLVESGGRLVQAGGSLRLSCAASGSTFQFNVMGWYRQAPGKERELVAAITSGASTYYADSVKGRFTISRDNAKNTVYLQMNSLEPEDTAVYYCAVDYSFRYDYVQRYYYWGQGTQVTVSS | high polyreactivity
QVQLVESGGRLVQAGGSLRLSCAASGSTFRKYAMGWYIQAPGKERELVASISRGGTTYYADSVKGRFTISRDNAKNTVYLQMNSLKPEDTAVYYCNKASYRWYWGYLDYYYWGQGTQVTVSS | high polyreactivity
QVQLVESGGRLVQAGGSLRLSCAASGSTFTRYVMGWYRQAPGKERELVAVISSSGGSTYYADSVKGRFTISRDNAKNTVYLQMNSLKPEDTAVYYCAARYSAKHYGYGYWGQGTQVTVSS | high polyreactivity
QVQLVESGGRLVQAGGSLRLSCAASGSTIPYYTMGWYRQAPGKERELVAAIRYSGSSTYYADSVKGRFTISRDNAKNTVYLQMNSLKPEDTAVYYCAKTLWRRRGDRRYRVIEMDHWGQGTQVTVSS | low polyreactivity
QVQLVESGGRLVQAGGSLRLSCAASGTFAVYTMGWYRQAPGKERELVAAISSGGSTYYADSVKGRFTISRDNAKNTVYLQMNSLKPEDTAVYYCNKPLSYGYDYWGQGTQVTVSS | high polyreactivity

Sequence | polyreactivity (PSR sort gate)
QVQLVESGGRLVQAGGSLRLSCAASGYTFQRYAMGWYRQAPGKERELVAAISSSGGSTYYADSVKGRFTISRDNAKNTVYLQMNSLKPEDTAVFYCAVRFVSAWSRYDYWGQGTQVTVSS | high polyreactivity
QVQLVESGGRLVQAGGSLRLSCAASVSTFRKYAMGWYRQAPGKEREFVAAITWSTGTTYYADSVKGRFTISRDTAKNTVYLQMNSLKPEDTAVYYCAADSQPPHELYESIEHESWGQGTQVTVSS | low polyreactivity
QVQLVESGGRLVQAGGSLRLSCADSGSIFEYYAMGWYRQAPGKEREFVAAISDNGDSTYYADSVKGRFTISRDNAKNTVYLQMNSLKPEDTEVYYCNKTPVDDPPWCYDSWGQGTQVTVSS | low polyreactivity
QVQLVESGGRLVQAGGSLRLSCAPSGFIFRFNAMGWYRQPPGKVSELVARIDWSGGSTYYADSVKGRFTISRENAKYTVYFQMNSLKPEDTAVYYCAAERYFEYSECDYWGQGTQVTVSS | low polyreactivity
QVQLVESGGRLVQAGGSLRLSGAASGFTFGRNAKGWYRPAPGKERELVASIDWSGGSTYYADSVKGRFTISRDNAKNTFFLQMNSLKPEETAVYYCAVGPNSVGNRSYGFDYWGQGTQVTVSS | low polyreactivity
QVQLVESGGRLVQAGGSLRLSGADSGSIFSSYAMGWNRPAPGKERELVAAISSSGDSTYADSEKGRFTISRDNAKNSVDLQMNSLKPEDTAVYYCAVGGAGSDDYWGQGTQVTVSS | low polyreactivity
QVQLVESGGRLVQAGGSLRLSSAASGRTFRTYALGWYRQAPGTEREFVAAISRRSGITYYADSVKGRFTISRDNAKNTVYLQMNSLKPEDTAVYYCAATGYTGYSRYYYWGQGTQVTVSS | high polyreactivity
QVQLVESGGRLVQAGGSLRLTCAASGNIFANNAMGWYRQAPGTERELVAAISQSGGNTYYEDSVKGRFTISRDNAKNTVYLQMNSLKPEDTAVYYCNAKTYGYNYDSWGQGTQVTVSS | low polyreactivity
QVQLVESGGRLVQAGGSLRLTCASSGRIFRYYAMGWYRQAPGKERQLVAAISSSGGSTYYADSVKGRFTISRDNAKNTVYLQMNSLKPEDTAVYYCAARYHIDTLFYGSRYDYWGQGTQVTVSS | high polyreactivity
QVQLVESGGRLVQAGGTLRLSCAASGFIFTPYAMGWYRQAPGKERELVAAITWRGARTYYADSVKGRFTISRDNANNTVYLQMNSLKPEDTAVYYCATTFTGYNKEFGYWGQGTQVTVSS | high polyreactivity
QVQLVESGGRLVQAGGTLRLSCAASGRNVGLYAMGWSRQAPGKERELVAAISSTGRTTYADSVKGRFTISRDNAKNNVYLQMNSLIPEVTAVYYCKADARSVCWYYYACLFDYWGQGTQGTVSS | low polyreactivity
QVQLVESGGRLVQAGGTLRLSCAASGRTLSNYALGWSRQAPGKERELVAAISSSGSTNYADSVKGRFTISRDNAKNTVYLQMNSLKPEDSAVYYCAAESWFLRWYRYDYWGQGTQVTVSS | low polyreactivity
QVQLVESGGRLVQEGGSLRLRCAASGSIFSGYAMGWSRQAPGKERELVAVITRGGNTNYADSVKGRFTISRDNAKNTVSLQMNSLTPEDTAVYYCAVDLRKSYRHKFDFNYWGQGTQVTVSS | low polyreactivity
QVQLVESGGRLVQEGRSLRLSCAASGSIFSRYAMGWYRQAPRKERELVAAITWSGGSTYYADSVKGRFTISRDNAKNNVYLQMNSLKPDDTAVYYCAAVGYAPYNHRYDSWGQGTQVTVSS | low polyreactivity
QVQLVESGGRLVQERGSLRLSCAASGFIFGRYAMGWYIQAPGKERELVAAITQSGGSTYYADSVKGRFTISRDNAKNTVYVQMNCLNPEDTAVYYCIAPIAYWRVHYKYGYWGQGTQVTVSS | low polyreactivity
QVQLVESGGSLVQAGGSLRLSCAASGRTFGYNGMGWYRQAPGKERELVAAITNDGGNTNYADSVKGRFTISRDNAKNTVYLQMNSLKPEDTAVYYCNADRTQDRNPYTYATFDYWGQGTQVTVSS | low polyreactivity
QVQLVESGGSLVQAGGSLRLSCAASGSTLYYNAMGWYRQAPGKERELVAAISWSGGSTYYADSVKGRFTISRDNAKNTVYLQMNSLKPEDTSVYYCAADQSTVLDVGSWGQGTQVTVSS | low polyreactivity
QVQLVESGGVLVQAGCSLRLSCAASGSTFYYNAMGWYRQAPRKERELVARISRSGGSTYADSVKGRFTISRDNAKNTVYLQMNSLKPEDTAVYYCYADAYGTPEFTSYAVRYDYWGQGTQVTVSS | low polyreactivity
QVQLVESGGVLVQAGCSLRLSCAAYGFTFASYAMGWYRQAPGKERELVAAISWGTVSTYYADSVKGRFTISRDNAMITVYLQMNSLRREDTAVYFCDAQRYTRLRRHGYWGLGTQVTVSS | high polyreactivity
QVQLVESGGVLVQAGGSLPLSCAASGFTFSRYAMGWYRQAPGKEREFVAGISRSGGSTYYADSVKGRFTNTRDNAMNTVSLQMNSLKPEDTAVYYWAKVYPATEAGDYWGQGTQVTVSS | high polyreactivity
QVQLVESGGVLVQAGGSLRLSCAASGFIFSSNAMGWCREAPGKERELVAAITGGGGRTRYADSVKGRFTISRDNAKNTVYLQMNSLKPEDTAVYYCAAEVYSIWWYDYWGQGTQVTVSS | high polyreactivity
